Laboratory results from paper PMC10746786 (2023).

Legend:
PRRC2A = test: co-immunoprecipitation followed by mass spectrometry; conditions: FLAG-tagged EIF4G2 transfected into HEK293T cells; corrected for EIF4G2 levels in IP; read off a plot
PRRC2B = test: as above; conditions: FLAG-tagged EIF4G2 transfected into HEK293T cells; corrected for EIF4G2 levels in IP; read off a plot

| ratio to parent (PRRC2A) | ratio to parent (PRRC2B) | Substance |
| --- | --- | --- |
| 3 |  | FLAG-tagged EIF4G2 WT (from UniProt P78344) R165C |
| 3 | 2.3 | FLAG-tagged EIF4G2 WT (from UniProt P78344) R178Q |
